According to PMC4530586, “STIL binding to Polo-box 3 of PLK4 regulates centriole duplication” (eLife, 2015):

Biological target: T1, human PLK4-PB3 (884–970), recombinant (human, UniProt O00444 884-970)
T1 construct: PLK4, human, residues 884–970 (Polo-box 3); isotope-labelled (2H, 15N, 13C) samples were used for NMR; also called Polo-box 3; source: E. coli BL21 DE3, purified (nickel resin, TEV cleavage, Superdex75 SEC); not shown: thioredoxin, N-terminal, cleaved; His6, N-terminal, cleaved
T1 sequence (looked up): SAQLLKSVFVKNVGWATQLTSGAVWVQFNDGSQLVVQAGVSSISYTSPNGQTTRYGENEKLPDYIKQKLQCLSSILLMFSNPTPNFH
Test: ITC; synthetic STIL-CC peptide (414 µM) titrated into recombinant PB3 (35.5 µM); 50 mM Hepes pH 8.0, 150 mM NaCl, 1 mM TCEP; 25°C; 30 injections of 10 µl; one-site binding model
Settings: both partners purified

B1: synthetic STIL-CC peptide (peptide, UniProt Q15468 720-751, looked up)
peptide: PDAYRFLTEQDRQLRLLQAQIQRLLEAQSLMP
notes: also called synthetic peptide corresponding to STIL-CC; source: synthetic peptide
In the case of B1, the Kd is reported as 280 ± 60 nM and the “stoichiometry N” value is reported as 1.
